Experimental findings from patent US20240108716A1 are described below.

The target in assay [1] is SARS-CoV-2 S peptide 826 (C-GGG-…) (SARS-CoV-2). Description: ELISA, control for CPMV826 on immobilised peptide. (In general: An ELISA detects its analyte on a solid surface through an enzyme-linked reagent.)
In assay [2] the target is SARS-CoV-2 S peptide 460 (C-GGG-FRKSN) (SARS-CoV-2). The experiment in a line: ELISA, control for CPMV460 on immobilised peptide.
Assay [3] addresses SARS-CoV-2 S peptide 386 (C-GGG-…) (SARS-CoV-2). Description: ELISA, control for CPMV386 on immobilised peptide.
Assay [4] deals with SARS-CoV-2 S peptide 564 (C-GGG-…) (SARS-CoV-2). The experiment in a line: ELISA, control for CPMV564 on immobilised peptide.
In assay [5] the target is SARS-CoV-2 S peptide 106 (C-GGG-…) (SARS-CoV-2). The experiment in a line: ELISA, control for CPMV106 on immobilised peptide.
Assay [6] addresses SARS-CoV-2 S peptide 153 (C-GGG-…) (SARS-CoV-2). The experiment in a line: ELISA, control for CPMV153 on immobilised peptide.
Assay [7] deals with SARS-CoV-2 S peptide 820 (C-GGG-…) (SARS-CoV-2). Description: ELISA, control for CPMV820 on immobilised peptide.
Assay [8] concerns the target SARS-CoV-2 S peptide 454 (C-GGG-…) (SARS-CoV-2). Description: ELISA, control for CPMV454 on immobilised peptide.
Assay [9] concerns the target SARS-CoV-2 S peptide 636 (C-GGG-…) (SARS-CoV-2). The experiment in a line: ELISA, control for CPMV636 on immobilised peptide.
For assay [10], the target named is SARS-CoV-2 S peptide 469 (C-GGG-…) (SARS-CoV-2). The experiment in a line: ELISA, control for CPMV469 on immobilised peptide.
The target in assay [11] is SARS-CoV-2 S peptide 420 (C-GGG-…) (SARS-CoV-2). The experiment in a line: ELISA, control for CPMV420 on immobilised peptide.
Assay [12] deals with SARS-CoV-2 S peptide 1159 (C-GGG-…) (SARS-CoV-2). The experiment in a line: ELISA, control for CPMV1159 on immobilised peptide.
For assay [13], the target named is SARS-CoV-2 S peptide 570 (C-GGG-…) (SARS-CoV-2). The experiment in a line: ELISA, control for CPMV570 on immobilised peptide.

For the substance “Control plasma of the peptide ELISA of the CPMV-based COVID-19 vaccines (antibody)”, the endpoint IgG titer (reciprocal dilution) in [1] came to 1600; in assay [2], 1470; in assay [3], 266; in [4], 1600; in [5], 400; in assay [6], 2130. For the same substance, the endpoint IgG titer (reciprocal dilution) in assay [7] was determined as 800; in [8] it was 100; in assay [9], 100; in assay [10] it was 1870; in assay [11] it was 400; in [12], 400. In assay [13], this substance came in with an endpoint IgG titer (reciprocal dilution) of 1600.
